The results in this text go back to the supplement of paper PMC9170038.

The test system of data set [1] is MS2 coat protein. Nature of the data set: apparent KD of MS2 coat protein; designed switch direction (-1 OFF switch, 1 ON switch): -1; higher = weaker reporter binding. The following applies: Eterna round: R98. The method, then: (§1)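 RNA-MaP: designed FMN/MS2 RNA switches (84 nt design region) are transcribed on-chip within common flanks and titrated with SNAP-549-labelled MS2 coat protein (about 1-3000 nM) in 100 mM Tris pH 7.5, 80 mM KCl, 4 mM MgCl2, without or with 200 uM FMN. Median apparent KD per design; activation ratio = KD,OFF / KD,ON.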

The subject of data set [2] is MS2 coat protein. Nature of the data set: apparent KD of MS2 coat protein; higher = weaker reporter binding. Conditions: Eterna round: R101. The procedure: as §1

In the case of “AGAGCCUCGUGAGGAUAUACAUGAGGAUCACCCAUGUAAUAGGAUGAACGGAGGAAACUCCGAAUGUAGAAGGCACGAGGCUCA [Exclusion NG 2/11-B1]”, the “apparent KD of MS2 coat protein” value is 686 nM in the data set on MS2 coat protein [1] (input ligand: FMN 200 uM) and 74.5 nM with MS2 coat protein [1] (input ligand: none).

Take “CGCUCGCCGAGAGGAUAUGCAUUGGUGGGCGGUCCUGAACAUGAGGAUCACCCAUGUAUCAGUAAGCAGAAGGCUUGGUAGACG [Usesreed]”: the “apparent KD of MS2 coat protein” value with MS2 coat protein [1] (input ligand: FMN 200 uM) is 16.5 nM; in the data set on MS2 coat protein [1] (input ligand: none), 20.1 nM.

As to “CGGGAUACGAAGGGCGAAAGCCCACAUGAGGAUCACCCAUGUAGAAGGCGGGCCGCAACGCGGCCCGAGGAUAUACAGUAUCCA [#my 5th design] (puzzle (switch architecture): Inverted Exclusion NG 3)”, the “apparent KD of MS2 coat protein” value came out at 10.5 nM in the data set with MS2 coat protein [2] (input ligand: FMN 200 uM) and 5.72 nM with MS2 coat protein [2] (input ligand: none).

On to “GGUCGACCUCAAGGAUAUGGACUGCAAAGCAGUCCAGAAGGUGAGGAUCACCCAUCUACGGUCAGGAAACUGACCGAUCGACCA [#SharedSequence - ExNG1-6] (puzzle (switch architecture): Exclusion NG 1)”, for which the “apparent KD of MS2 coat protein” value came out at 914 nM in the data set with MS2 coat protein [2] (input ligand: FMN 200 uM) and 308 nM in the data set with MS2 coat protein [2] (input ligand: none).

Regarding “GGUGUUAACACAGGAUAUCUGCGUAAACAGCGCGGAGAAGGGUGGGUGACCAAGGACACAUGAGGAUCACCCAUGUACCCUUAA [Timadier] (puzzle (switch architecture): Same State NG 1)”, the entries for the “apparent KD of MS2 coat protein” value in the data set on MS2 coat protein [2] (input ligand: FMN 200 uM) and with MS2 coat protein [2] (input ligand: none) were 184 nM and 72.7 nM, respectively.

As to “GGUUGUUACGCAGGAUAUUGCCAACAGGCAGUAGGAUAUCCGAAAGGAGAAGGACCGCCAACAGGCGAGAAGGGCGGGUUAACC [pwkr exNG2 2xF7 2FMN.10.4]”, the “apparent KD of MS2 coat protein” value came to 48.3 nM in the data set with MS2 coat protein [1] (input ligand: FMN 200 uM) and 35.4 nM in the data set on MS2 coat protein [1] (input ligand: none).

In the case of “GUCACGGUUAAUUCCGUGACGCGCAAACCUUGAGGAUCACCCAAGGAUAUCGACGUCAAUGACGUCGAGAAGGUGGUUGAGCGC [#SharedSequence] (puzzle (switch architecture): Exclusion NG 3)”, the “apparent KD of MS2 coat protein” value in the data set on MS2 coat protein [2] (input ligand: FMN 200 uM) was 95.6 nM.

Turning to “GUCAGCUCGUGAGGAUAUACAUCACUGCUUCGGCAGUGUAUUAAGAUAACAUGAGGAUCACCCAUGUAGAAGGCACGAGCUGAU [#MS2NeighbourBaseDeletion - ENG2/2-A2] (puzzle (switch architecture): Exclusion NG 2)”, the results for the “apparent KD of MS2 coat protein” value in the data set on MS2 coat protein [2] (input ligand: FMN 200 uM) and in the data set on MS2 coat protein [2] (input ligand: none) were 8.5 nM and 5.49 nM, respectively.

For “UAAAUAAAUCCUAGAGGAUCACCCUAGGAUAUCACCGUCGAGGUGCCAUAAUGGCACCUCGACGGUGAGAAGGAGGGUAAUAAA [#SharedSequence - SLExNG3: 1-1] (puzzle (switch architecture): Small Loop Exclusion NG 3)”, the “apparent KD of MS2 coat protein” value in the data set on MS2 coat protein [2] (input ligand: FMN 200 uM) is 29.3 nM; with MS2 coat protein [2] (input ligand: none) it was 13.8 nM.

Take “UAAAUAAAUCCUAGAGGAUCACCCUAGGAUAUGAGGCUGCACCUCGGAUAAUCCGAGGUGCAGCCUCAGAAGGAGGAAAAUAAA [#SharedSequence - SLExNG3: 4-2] (puzzle (switch architecture): Small Loop Exclusion NG 3)”: the “apparent KD of MS2 coat protein” value with MS2 coat protein [2] (input ligand: FMN 200 uM) amounted to 7.71 nM; with MS2 coat protein [2] (input ligand: none), 8.16 nM.

Consider “UAAAUAAAUCCUAGAGGAUCACCCUAGGAUAUGAGGCUGCACCUCGGAUAAUCCGAGGUGCAGCCUCAGAAGGAGGUUGAUAAA [#SharedSequence - SLExNG3: 6-2] (puzzle (switch architecture): Small Loop Exclusion NG 3)”, for which the “apparent KD of MS2 coat protein” value with MS2 coat protein [2] (input ligand: FMN 200 uM) is 11.8 nM; in the data set on MS2 coat protein [2] (input ligand: none) it was 10.5 nM.

In the case of “UAUAUUUAGGCAGGAUAUACAUGUAUAUAUAAUUUUUUAUAUAUUAUUACAUGAGGAUCACCCAUGUAGAAGGGCCUUAUUAUA [LRO040_Exclusion NG 2]”, the “apparent KD of MS2 coat protein” value in the data set on MS2 coat protein [1] (input ligand: FMN 200 uM) was 62.9 nM; with MS2 coat protein [1] (input ligand: none), 51.2 nM.

For the sequence “UGUUGUUACGCAGGAUAUUGCCAACAGGCGGUAGGAUAUCCGAAAGGAGAAGGAUCGCCAACAGGCGAGAAGGGCGGGUUAACA [pwkr exNG2 2xF7 2FMN.10.3]”, the results for the “apparent KD of MS2 coat protein” value with MS2 coat protein [1] (input ligand: FMN 200 uM) and in the data set with MS2 coat protein [1] (input ligand: none) were 26.7 nM and 21.3 nM, respectively.

Turning to “UUUUUUUUUUUUUACGCUUUGCGACGAGAAGGUACACAUGAGGAUCACCCAUGUCGAUUGGGAGGUAAGGAUAUUGGAUUGCGU [Inverted Small Loop Same State NG 3 Solution, Uracil-heavy] (puzzle (switch architecture): Inverted Small Loop Same State NG 3)”, the “apparent KD of MS2 coat protein” value in the data set with MS2 coat protein [2] (input ligand: FMN 200 uM) amounted to 0.483 nM; in the data set on MS2 coat protein [2] (input ligand: none) it was 18.4 nM.
